From the supplement of paper PMC9170038

System: MS2 coat protein
Experiment: apparent KD of MS2 coat protein; designed switch direction (-1 OFF switch, 1 ON switch): -1; higher = weaker reporter binding
Outline: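 Stalled E. coli RNA polymerase transcribed designed RNA switches on Illumina chips, which were then titrated with SNAP-549-labelled MS2 coat protein, doubling from 0.7 or 1.5 nM to 3 µM. Steps lasted from 0.8–1.5 h at the lowest concentration to 10–20 min at the highest. The apparent KD is each design's median over clusters of curve-fitted normalised fluorescence.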

[1] = input ligand: microRNA oligo, concentration not stated
[2] = Eterna round: R95, input ligand: FMN 200 uM
[3] = Eterna round: R95, input ligand: microRNA oligo, concentration not stated
[4] = Eterna round: R95, input ligand: none

Sequence	apparent KD of MS2 coat protein (input ligand: FMN 200 uM)	apparent KD of MS2 coat protein (input ligand: none)	apparent KD of MS2 coat protein [1]	apparent KD of MS2 coat protein [2]	apparent KD of MS2 coat protein [3]	apparent KD of MS2 coat protein [4]
UGAUGACAUGAGGAUCACCCAUGUCAGGAUAUUGAGCUUGAGCUGAAAAGUUCGAGUUCGAGAAGGGACUGUCG [-29.6, -26.6 kcal, A 28%, 1] (Eterna round: R97, puzzle: Exclusion 1)	28.2 nM	29 nM				
UGAUUGUGAGGAUAUUCUGAAUAAGGCACGGGCGUCUUAUUGAAGAAGGCACAUGAGGAUCACCCAUGUGGGUU [Eternabot (L2) Solution 90] (Eterna round: R97, puzzle: Exclusion 4)	248 nM	188 nM				
UGAUUGUUUACCAGAUUAUACAUGAGGAUCACCCAUGUAGAUCCUACGUGCACGUUAUACCGCUCGUCUUAUUCCCA [Sensor-V1 #75] (Eterna round: R97, puzzle: Sensor, turn-off variant 1)	44.6 nM	41.2 nM				
UGAUUGUUUACCAGGUUAUACAUGAGGAUCACCCAUGUAGAUCCUACGUGCGCGUUGUACCGCUCGUCUUAUUGCCA [Sensor-V1 #79] (Eterna round: R97, puzzle: Sensor, turn-off variant 1)	19.5 nM	21.3 nM				
UGCACCUCAGGAUAUACUAGGUCCAGUAUGGCGAAAGCCGCACAUGAGGAUCACCCAUGUAGAAGGGAGGUGCA [Eternabot (L1) Solution 61] (Eterna round: R97, puzzle: Exclusion 2)	34.1 nM	257 nM				
UGCAGACGAGGAUAUAAACGAUAUAACAUGAGGAUCACCCAUGUACGAUCGAAUGAUCGUUUAGAAGGCGUCUGCU [E5/10-A3] (Eterna round: R97, puzzle: Exclusion 5)	16.1 nM	16.2 nM				
UGCAGACGAGGAUAUGAUAAAGAUCACAUGAGGAUCACCCAUGUACGCAGGAUACUGCGAUCAGAAGGCGUCUGCA [E5/1-A3] (Eterna round: R97, puzzle: Exclusion 5)	16.3 nM	13 nM				
UGCGGAAGAGGAUAUACAUUGAAUUUGAUUCAUGUAAAACUACAUGAGGAUCACCCAUGUAGAAGGCUUUCGCU [Mat - Exclusion 2 - JL Mod - D66] (Eterna round: R97, puzzle: Exclusion 2)	33.7 nM	17.7 nM				
UGCGGUUGAGGAUAUACGUAGAAGUAGAUUCAUGUAAAACUACAUGAGGAUCACCCAUGUAGAAGGCAAUCGCU [Mat - Exclusion 2 - JL Mod - D40] (Eterna round: R97, puzzle: Exclusion 2)	193 nM	21.5 nM				
UGCUACGGAGGAUAUACAUGAGGAUCACCCAUGUGAUAGAUUAUGCCGAGAGGCUAGUGUAGAAGGCCGUAGCU [jl-ex3-4.14 jl mod] (Eterna round: R97, puzzle: Exclusion 3)	683 nM	189 nM				
UGGAUAAUUGGAGGAUAUGCGACAUAAACCAUUGUAGAAGGCCAACAUGAGGAUCACCCAUGUGUCCCAGAGACCACAGAUCCA [Eternabot solution 9] (Eterna round: R96, puzzle: Exclusion NG 1)	36.9 nM	28.2 nM	22.2 nM			
UGGCUGCUCAGGGAGUGUGACAUGAGGAUCACCCAUGUGGUAGUAAGGAACAAGCUUUUUACACGUACUUAUAAAGC [JR_SV3TOV1_Sub011] (puzzle: Sensor v3, turn-off variant 1)				157 nM	135 nM	296 nM
UGGUAACAUGAGGAUCACCCAUGUCAGGAUAUCAGGAAGAAGAGAGGAGAGGAGAAGAUGAGAAGGGACUAUAU [Excluse me! 11 - Jieux - Exclusion 1] (puzzle: Exclusion 1)				21.6 nM	19.8 nM	26.2 nM
UGGUAACAUGAGGAUCACCCAUGUCAGGAUAUCAGUAAGAAUAGAGGAGAGUAGAAGAUGAGAAGGGACUAUAU [Excluse me! 8 - Jieux - Exclusion 1] (puzzle: Exclusion 1)				20.5 nM	33.4 nM	30.8 nM
UGUAACCUAGGAUAUACAUGAGGAUCACCCAUGUAAUGUAGUAUAGUGUGUGUGAGGUGUAGAAGGUGGGAUGU (Eterna round: R97, puzzle: Exclusion 3)	60.4 nM	60.2 nM				
UGUACUAUGCGAGCUGACUUGCGUAGUGCAGCAGGUGAAACAUGAGGAUCACCCAUGUCCUCAUUUGCUCGUCUUAU [SL-sv3-2.02 JL mod] (Eterna round: R96, puzzle: Sensor v3, turn-off variant 2)	45.2 nM	43.1 nM	399 nM			
UGUACUAUGCGAGCUGACUUGCGUAGUGCAGCAGGUGAAACAUGAGGAUCACCCAUGUCCUCAUUUGCUCGUCUUAU [SL-sv3-2.02 JL mod] (puzzle: Sensor v3, turn-off variant 2)				47.7 nM	599 nM	41.6 nM
UGUAUAGGAGUGAGGAUAUGGAAACUGGAAAAGGACCAGAAGGCACAUGAGGAUCACCCAUGUGGUUCUCAAGA [Eternabot (Original) Solution 50] (Eterna round: R97, puzzle: Brourd's mod of Exclusion 4)	1210 nM	373 nM				
UGUCCAAUACAGGAUAUUCUCGCGUAGUAGCAAGGAGAAGGGUAGACAUGAGGAUCACCCAUGUGAUUCAUCUG [Eternabot (L2) Solution 68] (Eterna round: R97, puzzle: Exclusion 6)	438 nM	575 nM				
UGUCCACAUUCCGAUACGGGACAUGAGGAUCACCCAUGUCCACAGGAUAUCGUCUUACGAGAGAUCGAGAAGGGUGGCGUGCGC [Eternabot solution 22] (Eterna round: R96, puzzle: Exclusion NG 3)	13.1 nM	14.1 nM	9.72 nM			
UGUCUUCAUAUCACAUGAGGAUCACCCAUGUUAUUCAUCUCGUAGGAUAUCGAGGUUUAUUAUUUCGAGAAGGACGUAUUGUUU [JR_ExcNG3_Sub076] (Eterna round: R96, puzzle: Exclusion NG 3)	199 nM	148 nM	112 nM			
UGUCUUGCAGGAUAUCAUGUGAUAUACAUGAGGAUCACCCAUGUUAGCCUCAUGAGCGUCUGAGAAGGGUAAGACG [Eternabot (L2) Solution 22] (Eterna round: R97, puzzle: Exclusion 5)	131 nM	40.1 nM				
UGUGGACAUGAGGAUCACCCAUGUCAGCCGUGUCCACCGAGAGAGGAUAUUGGUCAACCAGGGACUAAGAAGGCUCAGAGCUGG [Eternabot solution 47] (Eterna round: R96, puzzle: Exclusion NG 3)	30.3 nM	46.4 nM	37.4 nM			
UGUUGUCGCGCAGGAUAUGAGGAUCACCCAUAUAAAGGAUAUGAAAAGAAGGUUCUGAGGAUUACCCAGAAGGGCGGGACAACU [pwkr exNG2 2xF5 2xFMN.16] (Eterna round: R96, puzzle: Exclusion NG 2)	250 nM	52.3 nM	40.3 nM			
UGUUGUCGCGCAGGAUAUGAGGAUCACCCAUAUAGAGGAUAUGAAAAGAAGGCUCUGAGGAUUACCCAGAAGGGCGGGACAACU [pwkr exNG2 2xF5 2xFMN.21] (Eterna round: R96, puzzle: Exclusion NG 2)	1660 nM	179 nM	152 nM			
UGUUGUCGCGUAGGAUAUUGUCAACAGGCAGUAGGAUAUGCGAAAGCAGAAGGACCGCCAACAGGCGAGAAGGACGGGACAACU [pwkr exNG2 2xF7 2xFMN.6] (Eterna round: R96, puzzle: Exclusion NG 2)	44.3 nM	138 nM	35.6 nM			
UGUUGUUACGCAGGAUAUGCAUGAGGAUCACCCAUGCAAUUAGAGUUAACAUGAGGAUCACCCAUGUAGAAGGGCGGGUUAACA [pwkr exNG2 2xF5 1xFMN.4] (Eterna round: R96, puzzle: Exclusion NG 2)	82.2 nM	57.6 nM	45.8 nM			
UGUUGUUACGUAGGAUAUCCACCAACAGGUGGAAGGAUAUGGAAACAGAAGGUUCGCCAACAGGCGGAGAAGGACGUGUUAACU [pwkr exNG2 2xF7 2xFMN.23] (Eterna round: R96, puzzle: Exclusion NG 2)	2.79 nM	288 nM	3780 nM			
